As usually defined, the stoichiometry N is a count of units in the complex or per binding partner.

For the test, the target named is full-length H. sapiens ROCK2 (H. sapiens), O75116. In words: rotary shadowing electron microscopy. Conditions: remark: other sources report otherwise.

B1: full-length H. sapiens ROCK2, O75116 1-1388 (enzyme)
chain: MSRPPPTGKMPGAPETAPGDGAGASRQRKLEALIRDPRSPINVESLLDGLNSLVLDLDFPALRKNKNIDNFLNRYEKIVKKIRGLQMKAEDYDVVKVIGRGAFGEVQLVRHKASQKVYAMKLLSKFEMIKRSDSAFFWEERDIMAFANSPWVVQLFYAFQDDRYLYMVMEYMPGGDLVNLMSNYDVPEKWAKFYTAEVVLALDAIHSMGLIHRDVKPDNMLLDKHGHLKLADFGTCMKMDETGMVHCDTAVGTPDYISPEVLKSQGGDGFYGRECDWWSVGVFLYEMLVGDTPFYADSLVGTYSKIMDHKNSLCFPEDAEISKHAKNLICAFLTDREVRLGRNGVEEIRQHPFFKNDQWHWDNIRETAAPVVPELSSDIDSSNFDDIEDDKGDVETFPIPKAFVGNQLPFIGFTYYRENLLLSDSPSCRETDSIQSRKNEESQEIQKKLYTLEEHLSNEMQAKEELEQKCKSVNTRLEKTAKELEEEITLRKSVESALRQLEREKALLQHKNAEYQRKADHEADKKRNLENDVNSLKDQLEDLKKRNQNSQISTEKVNQLQRQLDETNALLRTESDTAARLRKTQAESSKQIQQLESNNRDLQDKNCLLETAKLKLEKEFINLQSALESERRDRTHGSEIINDLQGRICGLEEDLKNGKILLAKVELEKRQLQERFTDLEKEKSNMEIDMTYQLKVIQQSLEQEEAEHKATKARLADKNKIYESIEEAKSEAMKEMEKKLLEERTLKQKVENLLLEAEKRCSLLDCDLKQSQQKINELLKQKDVLNEDVRNLTLKIEQETQKRCLTQNDLKMQTQQVNTLKMSEKQLKQENNHLMEMKMNLEKQNAELRKERQDADGQMKELQDQLEAEQYFSTLYKTQVRELKEECEEKTKLGKELQQKKQELQDERDSLAAQLEITLTKADSEQLARSIAEEQYSDLEKEKIMKELEIKEMMARHKQELTEKDATIASLEETNRTLTSDVANLANEKEELNNKLKDVQEQLSRLKDEEISAAAIKAQFEKQLLTERTLKTQAVNKLAEIMNRKEPVKRGNDTDVRRKEKENRKLHMELKSEREKLTQQMIKYQKELNEMQAQIAEESQIRIELQMTLDSKDSDIEQLRSQLQALHIGLDSSSIGSGPGDAEADDGFPESRLEGWLSLPVRNNTKKFGWVKKYVIVSSKKILFYDSEQDKEQSNPYMVLDIDKLFHVRPVTQTDVYRADAKEIPRIFQILYANEGESKKEQEFPVEPVGEKSNYICHKGHEFIPTLYHFPTNCEACMKPLWHMFKPPPALECRRCHIKCHKDHMDKKEEIIAPCKVYYDISTAKNLLLLANSTEEQQKWVSRLVKKIPKKPPAPDPFARSSPRTSMKIQQNQSIRRPSRQLAPNKPS
Molecule B1 registered a stoichiometry N of 2.

The values above are taken from article doi:10.1101/2022.03.11.483953.
